Laboratory results from patent US20210380707A1.

What was measured:
[1] = target: recombinant human CD70 tagged with mouse IgG2a Fc (AcroBiosystems Cat#CDL-H525a) (human; mouse) (UniProt P32970); test: indirect ELISA, hybridoma supernatant, coated antigen A at 1 µg/ml
[2] = target: Mouse IgG2a protein (AcroBiosystems Cat# IGA-M5207) (mouse) [IgG part: P01863]; test: indirect ELISA, hybridoma supernatant, coated antigen B at 1 µg/ml
Mouse IgG2a protein (AcroBiosystems Cat# IGA-M5207) (mouse) [IgG part: P01863], sequence (P01863 98-330): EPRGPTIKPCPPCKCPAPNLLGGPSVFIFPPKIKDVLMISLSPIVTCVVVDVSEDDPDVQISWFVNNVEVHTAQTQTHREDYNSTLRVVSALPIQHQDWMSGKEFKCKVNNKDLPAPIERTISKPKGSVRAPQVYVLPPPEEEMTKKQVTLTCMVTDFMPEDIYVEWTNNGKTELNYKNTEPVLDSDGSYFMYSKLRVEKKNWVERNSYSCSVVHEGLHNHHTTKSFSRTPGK

recombinant human CD70 tagged with mouse IgG2a Fc (AcroBiosystems Cat#CDL-H525a) (human; mouse), sequence (P32970 39-193): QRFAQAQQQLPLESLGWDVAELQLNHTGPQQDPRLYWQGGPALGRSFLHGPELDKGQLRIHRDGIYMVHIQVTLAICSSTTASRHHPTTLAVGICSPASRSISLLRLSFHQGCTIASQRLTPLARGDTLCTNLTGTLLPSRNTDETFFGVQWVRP

B1: 11E12E8 (antibody, IgG1, V domains shown)
VH: DVQLVESGGGLVQPGGSRKLSCAASGFTFSRFGMNWVRQAPEKGLEWVAYISSGSGDIYYADTVKGRFTISRDNPKNTLFLQMTSLRSEDTAMYYCAVTWFAYWGQGTLVTVSA
VL: QAVVTQEPALTTSPGETVTLTCRSSTGAVTTSNYANWVQEKPDHLFTGLIGGTNNRAPGVPARFSGSLIGDKAALTITGAQTEDEAIYFCVLWYSNHFIFGSGTKVTVL
[1]
  OD 450: 1.01 OD 450
[2]
  OD 450: 0.107 OD 450

B2: 16D7C8 (antibody, IgG3, V domains shown)
VH: QVQLQQSGPELVKPGASVRISCKASGYTFTSFYIHWVKQRPGQGLEWIGWISPINININYNEKFKGKATLTADKSSSTVYMQLSSLTSEDSAVYFCEGTSENFDVWGAGTTVTVSS
VL: DVLMTQIPLSLPVSLGDQASISCRSTQNIVHSNGNTYLEWYLQKPGQSPKLLIYKVSNRFSGVPDRFRGSGSGTEFTLKITRVEADDLGVYYCFQGSHVPFTFGAGTKLELK
[1]
  OD 450: 2.12 OD 450
[2]
  OD 450: 0.154 OD 450

B3: 18F8A8 (antibody, IgG1, V domains shown)
VH: QVTLKESGPGILQPSQTLSLTCSFSGFSLSTSNMGVAWIRQPLGKGLEWLLYILWNDTKYYNPALKSRLSISKDTYNNQVFLKIVNVDTADTATYYCARIRRDYALDYWGQGTSVTVSS
VL: DIVMSQSPSSLAVSVGEKVTMNCKSSQSLLYSNNQKNYLAWYQQKPGQSPKLLIYWASTRESGVPDRFTGSGSGTDFTLTISSVKAEDLAVYYCQQYYIYPLAFGGGTKLEIK
[1]
  OD 450: 1.97 OD 450
[2]
  OD 450: 0.146 OD 450

B4: 4E6G9 (antibody, V domains shown)
VH: QIQLVQSGPELKKAGETVKISCKASGYTFAAYSMHWVKQAPGKGLKWMGWINTETGEPTYADDFKGRFAFSLETSASTAYLQINNLKNEDTATYFCTRDDYDGGRFSYWYFAVWGAGTTVTVSS
VL: DIQMTQSPSSLSASLGGKVTITCKASQDINKYIAWYQHRPGKGPRLLIRYTSTLQPGIPSRFSGSGSGRDYSFSINNLEPEDIATYYCLQYDNLLTFGGGTKLEIK
[1]
  OD 450: 2.51 OD 450
[2]
  OD 450: 0.121 OD 450

B5: 19H7E4 (antibody, IgG1, V domains shown)
VH: QVTLKESGPGILQPSQTLSLTCSFSGFSLSTSNVGVGWIRQPSGKGLEWLLHILWNDGKYYNPALKSRLTISKDTSTNQVFLKIADVDTADSATYYCARLRRDYGMDYWGQGTSVTVSS
VL: DIVMSQSPSSLAVSVGEKVTMSCKSSQSLLYSYNQKNYLAWYQQKPGQSPKLLIYWASTRESGVPDRFTGSGSGTDFTLTISSVKAEDLAVYYCQQYYTYPYAFGGGTKLEIK
[1]
  OD 450: 1.85 OD 450
[2]
  OD 450: 0.134 OD 450

B6: 3H11D12E7 (antibody, V domains shown)
VH: QIQLVQSGPELKKPGETVKISCKASGYTFTDYSMHWVKQAPGKGLKWMGWINTETGEPTYADDFKGRFAFSLETSASTAYLQINNLKNDDTATYFCARSFYRYDWYFDVWGAGTTVTVSS
VL: QIVLTQSPAIMSASPGEKVTITCSASSSVSFMHWFQQKPGTSPKLWIYSTSNLASGVPARFSGSGSGTSYSLTISRMEAEDAATYYCQQRTSFPPTFGGGTNLEIK
[1]
  OD 450: 1.87 OD 450
[2]
  OD 450: 0.115 OD 450
